Experimental data from article PMC12631112.

What was measured:
[1] = molecular target: serum IgM of healthy donors (mu heavy and light chains) (human (endogenous in serum)); experiment: ELISA; IgM-CD5L ELISA: anti-human IgM (MH-15-1) coated captures IgM from serum diluted in HPE buffer, room temperature; IgM-bound CD5L detected with a-CD5L-HRP (clone 5B5, 0.5 µg/mL); compared to total IgM
[2] = molecular target: IgM of patients with IgM MGUS and WM (n = 29), IgM-CD5L ELISA; experiment: as above
[3] = molecular target: serum IgM of WM patient 11 (human (endogenous in serum)); experiment: SEC + ELISA; serum diluted in PBS fractionated by HP-SEC on Superose 6 increase 10/300 GL in PBS, 0.5 mL/min; IgM, IgM-J-chain and IgM-CD5L measured by ELISA in each 250 µL fraction

- ratio between IgM-CD5L complexes and total IgM [1]: 1
- ratio between IgM-CD5L complexes and total IgM [2]: 0.1
- percent of IgM molecules that contain CD5L [3]: 10%
B1: CD5-Like (CD5L) (natural protein)
chain: SPSGVRLVGGLHRCEGRVEVEQKGQWGTVCDDGWDIKDVAVLCRELGCGAASGTPSGILYEPPAEKEQKVLIQSVSCTGTEDTLAQCEQEEVYDCSHDEDAGASCENPESSFSPVPEGVRLADGPGHCKGRVEVKHQNQWYTVCQTGWSLRAAKVVCRQLGCGRAVLTQKRCNKHAYGRKPIWLSQMSCSGREATLQDCPSGPWGKNTCNHDEDTWVECEDPFDLRLVGGDNLCSGRLEVLHKGVWGSVCDDNWGEKEDQVVCKQLGCGKSLSPSFRDRKCYGPGVGRIWLDNVRCSGEEQSLEQCQHRFWGFHDCTHQEDVAVICSG
